Measured values reported in patent US20090252683A1 (Amgen, published 2009).
Blank lines part the entries; values can stand above or below the binder they belong to.

Key:
[1] = biological target: T1, cynomolgus EpCAM antigen on transfected CHO cells (cynomolgus, UniProt Q1WER1 24-265 (rhesus entry)); assay: FACS on cynomolgus EpCAM transfected CHO cells against untransfected cells
T1 construct: 48 holds the extracellular portion
T1 sequence: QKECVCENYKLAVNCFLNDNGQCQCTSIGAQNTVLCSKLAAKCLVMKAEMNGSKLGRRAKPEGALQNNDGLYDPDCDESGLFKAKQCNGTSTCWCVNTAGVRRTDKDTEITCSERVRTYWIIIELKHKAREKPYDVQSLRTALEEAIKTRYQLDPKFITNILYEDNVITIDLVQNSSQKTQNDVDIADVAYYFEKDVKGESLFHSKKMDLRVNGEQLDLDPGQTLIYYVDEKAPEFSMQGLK
Experimental: FIG. 7: FACS assay for the detection of the cynomolgus EpCAM antigen on transfected CHO cells. Supernatants of three different anti human EpCAM hybridomas (M79, 3B10, 2G8) were tested for binding.
To generate a cell line positive for cynomolgus EpCAM, a clone of the aforementioned coding sequence of the cynomolgus EpCAM antigen subcloned into pEFDHFR with a verified nucleotide sequence was transfected into DHFR deficient CHO cells for eukaryotic expression of the construct as described in Kaufmann R. J. (1990) Methods Enzymol. 185, 537-566). Gene amplification of the construct was induced by increasing concentrations of MTX to a final concentration of up to 500nM MTX. The transfected cells were then tested for expression of cynomolgus EpCAM using an FACS assay. For that purpose, a number of 2.5×10⁵ cells was incubated with 50 μl supernatant three different mouse anti human EpCAM hybridomas (M79—Fogler et al., Cancer Res. 48 (1988); p. 6303-8; 3B10—Passlick et al. Int. J. Cancer 87 (2000), p. 548-552; 2G8—Balzar et al., J. Mol. Med. 77 (1999), p. 699-712). […] The samples were measured on a FACSscan (BD biosciences, Heidelberg, FRG). The anti EpCAM antibody 2G8 was recognized as cross-species specific and the expression of cynomolgus EpCAM was confirmed (see FIG. 7).

[2] = biological target: T2, human CD3 antigen on HPB-ALL cells or human T cells (human, UniProt P07766 22-126; P09693 23-111; P04234 22-103); assay: FACS, FITC-conjugated antibody on HPB-ALL cells
T2 construct: natural CD3 complex on cells (HPB-ALL, human PBMC T cells); also called human CD3 complex
Experimental: Binding of an Ig comprising SEQ ID NOs. 2 and 4, an Ig comprising SEQ ID NOs. 6 and 8 and mAb FN18 to the cynomolgus CD3 antigen on cynomolgus PBMC and to the human CD3 antigen on HPB-ALL cells (DSMZ No. ACC 483) was tested using an FACS assay. For that purpose, 2.5×10⁵ cells were incubated with the FITC-conjugated Ig comprising SEQ ID NOs. 6 and 8 and the FITC-conjugated Ig comprising SEQ ID NOs. 2 and 4 diluted 1:25 in 50 μl PBS with 2% FCS, respectively. The incubation with the FITC-conjugated mAb FN18 antibody (Biosource International) was performed in 50 μl of undiluted antibody. The samples were measured on a FACSscan (BD biosciences, Heidelberg, FRG). Strong antigen binding on human as well as on cynomolgus cells was detected for the Ig comprising SEQ ID NOs. 2 and 4. For the Ig comprising SEQ ID NOs. 6 and 8, strong binding to human cells but weaker binding to cynomolgus cells was observed. For FN18, strong binding to cynomolgus cells could be observed whereas no binding to human cells could be detected.

[3] = biological target: T3, human EpCAM antigen on Kato III cells or human EpCAM transfected CHO cells (human, UniProt P16422 24-265); assay: FACS, Kato III cells or human EpCAM transfected CHO cells, anti-His detection
T3 construct: 137 holds only the extracellular portion; the protein stood whole on cells
T3 sequence: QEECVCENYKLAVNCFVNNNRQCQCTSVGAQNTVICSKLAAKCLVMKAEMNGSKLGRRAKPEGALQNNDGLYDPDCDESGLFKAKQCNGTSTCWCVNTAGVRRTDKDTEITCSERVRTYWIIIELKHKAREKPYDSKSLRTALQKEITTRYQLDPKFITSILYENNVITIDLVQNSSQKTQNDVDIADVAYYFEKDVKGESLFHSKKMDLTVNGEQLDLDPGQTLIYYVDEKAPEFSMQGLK
Experimental: FIG. 3: FACS assay for binding of 5-10LH×SEQ ID NO. 12, 5-10LH×SEQ ID NO. 10, 5-10LH×SEQ ID NO. 16 and 5-10LH×SEQ ID NO. 14 to human Kato III cells expressing EpCAM or human EpCAM transfected CHO cells and to HPB-ALL cells. Cells bound by the respective constructs (depicted as non-filled curves) are shown in comparison to cells incubated only with the detection antibodies (depicted as filled curves). Antigen binding of all bispecific constructs was clearly detectable for the anti human EpCAM specificity as well as for the anti CD3 specificities on the HPB-ALL cell line positive for human CD3.
Binding of the bifunctional constructs to the EpCAM antigen on human Kato III cells expressing EpCAM (ATCC No. HTB-103) or on human EpCAM transfected CHO cells and to the human CD3 antigen on HPB-ALL cells was tested using an FACS assay. For that purpose 2.5×10⁵ cells were incubated with 50 μl of cell culture supernatant containing the construct. The binding of the construct was detected with an anti-His antibody (Penta-His Antibody, BSA free, obtained from Qiagen GmbH, Hilden, FRG) at 2 μg/ml in 50 μl PBS with 2% FCS. […] The samples were measured on a FACSscan (BD biosciences, Heidelberg, FRG). Antigen binding was clearly detectable for the anti human EpCAM specificity as well as for the anti CD3 specificities on the cell line positive for human CD3 (see FIG. 3).

[4] = biological target: T1, cynomolgus EpCAM antigen on transfected …; assay: FACS on cynomolgus EpCAM transfected CHO cells, anti-His detection
Source text: FIG. 8: FACS assay for binding of 2G8LH×SEQ ID NO. 12, 2G8LH×SEQ ID NO. 10, 2G8LH×SEQ ID NO. 16, 2G8LH×SEQ ID NO. 14, 2G8HL×SEQ ID NO. 12, 2G8HL×SEQ ID NO. 10, 2G8HL×SEQ ID NO. 16 and 2G8HL×SEQ ID NO. 14 on Kato III (FIG. 8A) cells or cynomolgus EpCAM transfected CHO cells (FIG. 8B) and HPB-ALL cells. Antigen binding was clearly detectable for the anti EpCAM specificities as well as for the anti CD3 specificities. As a negative control for binding to cynomolgus EpCAM, the 5-10LH×SEQ ID NO.
Binding of the bifunctional constructs from cell culture supernatants or binding of purified bifunctional constructs to the human EpCAM antigen on Kato III cells or cynomolgus EpCAM transfected CHO cells and to the CD3 antigen on HPB-ALL cells was tested using an FACS assay. For that purpose 2.5×10⁵ cells were incubated with 50 μl supernatant or with 5 μg/ml of the purified constructs in 50 μl PBS with 2% FCS. The binding of the constructs was detected with an anti-His antibody (Penta-His Antibody, BSA free, obtained from Qiagen GmbH, Hilden, FRG) at 2 μg/ml in 50 μl PBS with 2% FCS. […] The samples were measured on a FACSscan (BD biosciences, Heidelberg, FRG). Antigen binding was clearly detectable for the anti EpCAM specificities as well as for the anti CD3 specificities (see FIG. 8). As a negative control for binding to cynomolgus EpCAM, the 5-10LH×SEQ ID NO. […] The 5-10LH part only binds to human EpCAM.

[5] = biological target: T3, human EpCAM antigen on Kato III cells …; assay: cell-based or functional assay
[6] = biological target: cynomolgus CD3 antigen on cynomolgus PBMC / macaque T cells (Macaca fascicularis (cynomolgus), UniProt Q95LI5 22-117; Q95LI7 23-110; Q95LI8 22-103); assay: cell-based or functional assay
Sequence of cynomolgus CD3 antigen on cynomolgus PBMC / macaque T cells (Q95LI5 22-117, chain 1 of 3): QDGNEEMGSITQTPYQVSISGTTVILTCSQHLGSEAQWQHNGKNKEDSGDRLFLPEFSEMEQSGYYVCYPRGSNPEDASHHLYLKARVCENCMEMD
Sequence of cynomolgus CD3 antigen on cynomolgus PBMC / macaque T cells (Q95LI7 23-110, chain 2 of 3): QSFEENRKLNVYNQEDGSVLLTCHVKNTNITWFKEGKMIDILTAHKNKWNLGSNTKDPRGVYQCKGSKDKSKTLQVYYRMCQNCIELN
Sequence of cynomolgus CD3 antigen on cynomolgus PBMC / macaque T cells (Q95LI8 22-103, chain 3 of 3): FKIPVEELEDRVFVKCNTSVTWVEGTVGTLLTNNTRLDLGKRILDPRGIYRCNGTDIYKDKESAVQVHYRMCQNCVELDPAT

T2 sequence (P07766 22-126 limits assumed, chain 1 of 3): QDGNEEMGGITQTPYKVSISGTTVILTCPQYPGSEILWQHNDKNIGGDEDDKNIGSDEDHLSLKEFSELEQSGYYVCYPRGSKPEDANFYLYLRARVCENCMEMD
T2 sequence (P09693 23-111 limits assumed, chain 2 of 3): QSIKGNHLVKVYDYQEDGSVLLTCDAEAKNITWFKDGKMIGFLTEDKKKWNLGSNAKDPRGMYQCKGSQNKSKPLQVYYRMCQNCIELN
T2 sequence (P04234 22-103 limits assumed, chain 3 of 3): as the sequence (Q95LI8 22-103, chain 3 of 3) above, with V5I, K15N, V20I, T32S, N33D, N34I, A64T, N74S counted along it

binding result [1]: binds
B1: anti EpCAM antibody 2G8 (antibody, V domains shown)
VH: EVQLQQSGAELVRSGASVKLSCTASGFNIKDYYLHWVKQRPEQGLEWIAWIDLENGDIKYAPKFQGKATITADTSSNTAYLQLSSLTSEDTAVYYCNPYYYGSNYDYAMDYWGQGTSVTVSS
VL: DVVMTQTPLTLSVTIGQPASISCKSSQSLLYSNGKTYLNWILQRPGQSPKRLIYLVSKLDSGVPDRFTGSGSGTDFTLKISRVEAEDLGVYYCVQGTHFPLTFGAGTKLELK
notes: mouse hybridoma supernatant; also called 2G8 hybridoma

B2: monoclonal antibody (mAb) FN-18 (antibody, V domains shown)
VH: QVQLQQSEAELARPGASVKMSCKASGYTFTDYTIHWLKQRPGQGLDWIGYFNPSSESTEYNRKFKDRTILTADRSSTTAYMQLSSLTSEDSAVYYCSRKGEKLLGNRYWYFDVWGAGTSVTVSS
VL: DIVMSQSPSSLAVSVGEKVTMSCKSSQSLLYSSNQKNYLAWYQQKPGQSPKLLINWASTRESGVPDRFTGSGSRTDFTLTISSVKAEDLAVYFCQQFYSYPPTFGGGTKLEIK
notes: tested as bought FITC-conjugated antibody (Biosource International)
binding result [2]: no binding (tested: 50 µl of undiluted antibody)

binding result [3]: binds
B3: 5-10LH×SEQ ID NO. 16 bispecific single chain antibody (bispecific antibody)
chain: ELVMTQSPSSLTVTAGEKVTMSCKSSQSLLNSGNQKNYLTWYQQKPGQPPKLLIYWASTRESGVPDRFTGSGSGTDFTLTISSVQAEDLAVYYCQNDYSYPLTFGAGTKLEIKGGGGSGGGGSGGGGSEVQLLEQSGAELVRPGTSVKISCKASGYAFTNYWLGWVKQRPGHGLEWIGDIFPGSGNIHYNEKFKGKATLTADKSSSTAYMQLSSLTFEDSAVYFCARLRNWDEPMDYWGQGTTVTVSSGGGGSQVVLTQSPAIMSAFPGEKVTMTCSASSSVSYMNWYQQKSGTSPKRWIYDSSKLASGVPARFSGSGSGTSYSLTISSMETEDAATYYCQQWSRNPPTFGGGTKLQITGGGGSGGGGSGGGGSQVQLQQSGAELARPGASVKMSCKASGYTFTRSTMHWVKQRPGQGLEWIGYINPSSAYTNYNQKFKDKATLTADKSSSTAYMQLSSLTSEDSAVYYCASPQVHYDYNGFPYWGQGTLVTVSAHHHHHH

B4: 5-10LH×SEQ ID NO. 10 bispecific single chain antibody (bispecific antibody)
chain: ELVMTQSPSSLTVTAGEKVTMSCKSSQSLLNSGNQKNYLTWYQQKPGQPPKLLIYWASTRESGVPDRFTGSGSGTDFTLTISSVQAEDLAVYYCQNDYSYPLTFGAGTKLEIKGGGGSGGGGSGGGGSEVQLLEQSGAELVRPGTSVKISCKASGYAFTNYWLGWVKQRPGHGLEWIGDIFPGSGNIHYNEKFKGKATLTADKSSSTAYMQLSSLTFEDSAVYFCARLRNWDEPMDYWGQGTTVTVSSGGGGSEVKLLESGGGLVQPKGSLKLSCAASGFTFNTYAMNWVRQAPGKGLEWVARIRSKYNNYATYYADSVKDRFTISRDDSQSILYLQMNNLKTEDTAMYYCVRHGNFGNSYVSWFAYWGQGTLVTVSAGGGGSGGGGSGGGGSQAVVTQESALTTSPGETVTLTCRSSTGAVTTSNYANWVQEKPDHLFTGLIGGTNKRAPGVPARFSGSLIGDKAALTITGAQTEDEAIYFCALWYSNLWVFGGGTKLTVLHHHHHH
binding result [4]: no binding (tested: 50 µl supernatant or 5 µg/ml) | EC50 (half maximal killing), FACS-based cytotoxicity, Kato III target cells, human PBMC effector cells [5]: 0.0058 ng/mL | EC50 (half maximal killing), FACS-based cytotoxicity, Kato III target cells, cynomolgus PBMC effector cells [6]: 0.052 ng/mL
